Data on one molecule can be found in publication PMC12030614.

Assay [1] deals with Ta-P7 (Triticum aestivum L.).
Assay [2] has as its target Ta-V6 (Triticum aestivum L.).
Assay [3] addresses Triticain-α (Triticum aestivum L.).

* marks the point of attachment. AMC = Cc1cc(=O)oc2cc(N*)ccc12

B1: acetyl-Pro-Leu-Val-Gln-7-amino-4-methylcoumarin (peptide)
peptide: Ac-PLVQ-{AMC}
SMILES: CC(=O)N1CCC[C@H]1C(=O)N[C@@H](CC(C)C)C(=O)N[C@H](C(=O)N[C@@H](CCC(N)=O)C(=O)Nc1ccc2c(C)cc(=O)oc2c1)C(C)C
Turning to B1, in assay [1], the KM of Ac-PLVQ-AMC hydrolysis, pH 3.6, 37 °C came to 44.7 µM; the KM of Ac-PLVQ-AMC hydrolysis, pH 4.6, 37 °C was 32.2 µM; the KM of Ac-PLVQ-AMC hydrolysis, pH 5.6, 37 °C was 24.5 µM; the KM of Ac-PLVQ-AMC hydrolysis, pH 6.5, 37 °C worked out at 31.4 µM. In addition, the KM of Ac-PLVQ-AMC hydrolysis, pH 7.5, 37 °C in assay [1] worked out at 35.3 µM. Moreover, in assay [2], the KM of Ac-PLVQ-AMC hydrolysis, pH 3.6, 37 °C was 16.4 µM; the KM of Ac-PLVQ-AMC hydrolysis, pH 4.6, 37 °C turned out to be 20.5 µM; the KM of Ac-PLVQ-AMC hydrolysis, pH 5.6, 37 °C came out at 22.6 µM; the KM of Ac-PLVQ-AMC hydrolysis, pH 6.5, 37 °C worked out at 26.9 µM. For the same molecule, the KM of Ac-PLVQ-AMC hydrolysis, pH 7.5, 37 °C in assay [2] was determined as 29.2 µM. Moreover, in assay [3], the KM of Ac-PLVQ-AMC hydrolysis, pH 3.6, 37 °C was determined as 21.5 µM; the KM of Ac-PLVQ-AMC hydrolysis, pH 4.6, 37 °C amounted to 34.6 µM; the KM of Ac-PLVQ-AMC hydrolysis, pH 5.6, 37 °C came to 46 µM; the KM of Ac-PLVQ-AMC hydrolysis, pH 6.5, 37 °C is 49.4 µM. Also, the KM of Ac-PLVQ-AMC hydrolysis, pH 7.5, 37 °C in assay [3] was 583 µM.
